Results taken from patent publication US7981423B2, “Rage fusion proteins” (Transtech Pharma, Inc., priority 2004, dated 2011).

How the values were obtained:
[1] = biological target: T1, S100b (S100) (Homo sapiens, UniProt P04271); experiment: In vitro ligand binding ELISA, immobilized S100b; conditions: various dilutions of fusion protein; FIG. 7
T1 sequence (P04271 1-92): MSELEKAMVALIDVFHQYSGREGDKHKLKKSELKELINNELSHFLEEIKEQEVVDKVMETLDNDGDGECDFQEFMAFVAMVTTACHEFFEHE
Experimental: For example, the RAGE fusion protein may be used in a binding assay to identify potential RAGE ligands. In one example embodiment of such a binding assay, a known RAGE ligand may coated onto a solid substrate (e.g., Maxisorb plates) at a concentration of about 5 micrograms per well, where each well contains a total volume of about 100 microliters (μL). The plates may be incubated at 4° C. overnight to allow the ligand to absorb. Alternatively, shorter incubation periods at higher temperature (e.g., room temperature) may be used. […] The fusion protein bound to the immobilized ligand may be detected in a variety of ways. […] The bound complex may be detected by adding the alkaline phosphatase substrate, para-nitrophenylphosphate (PNPP), and measuring conversion of PNPP to para-nitrophenol (PNP) as an increase in absorbance at 405 nm. […] Binding was detected by the addition of an immunodetection complex containing a monoclonal mouse anti-human IgG1 diluted 1:11,000 to a final assay concentration (FAC) of 21 ng/100 μL, a biotinylated goat anti-mouse IgG diluted 1:500, to a FAC of […], and an avidin-linked alkaline phosphatase. […] Binding of the complex to the immobilized fusion protein was quantified by measuring conversion of PNPP to para-nitrophenol (PNP) which was-measured spectrophotornetrically at 405 nm. […]

[2] = tested on: amyloid-beta (A-beta); experiment: Competition of a RAGE ligand with immobilized amyloid-beta for binding to the fusion protein; conditions: TTP-4000 initial solution diluted 1:10 or 1:30; RAGE ligand 10 μM FAC
Experimental: The fusion protein of the present invention may also be used to identify compounds having the ability to bind to RAGE.
Known RAGE ligands were coated onto the surface of Maxisorb plates at a concentration of 5 micrograms per well. Plates were incubated at 4° C. overnight. Following ligand incubation, plates were aspirated and a blocking buffer of 1% BSA in 50 mM imidizole buffer (pH 7.2) was added to the plates for 1 hour at room temperature. The plates were then aspirated and/or washed with wash buffer (20 mM Imidizole, 150 mM NaCl, 0.05% Tween-20, 5 mM CaCl2 and 5 mM MgCl2, pH 7.2). […] The fusion protein was added at increasing dilutions of the initial sample. The RAGE fusion protein was allowed to incubate with the immobilized ligand at 37° C. for one hour after which the plate was washed and assayed for binding of the fusion protein. Binding was detected by the addition of an immunodetection complex containing a monoclonal mouse anti-human IgG1 diluted 1:11,000 to a final assay concentration (FAC) of 21 ng/100 μL, a biotinylated goat anti-mouse IgG diluted 1:500, to a FAC of […], and an avidin-linked alkaline phosphatase. The complex was incubated with the immobilized fusion protein for one hour at room temperature after which the plate was washed and the alkaline phosphatase substrate para-nitrophenylphosphate (PNPP) was added. […]

B1: TTP-4000: four domain RAGE fusion protein (SEQ ID NO: 32): human RAGE amino acids 1-251 linked to CH2 and CH3 domains of human IgG (protein)
chain: MAAGTAVGAWALVLSLWGAVVGAQNITARIGEPLVLKCKGAPKKPPQRLEWKLNTGRTEAWKVLSPQGGGPWDSVARVLPNGSLFLPAVGIQDEGIFRCQAMNRNGKETKSNYRVRVYQIPGKPEIVDSASELTAGVPNKVGTCVSEGSYPAGTLSWHLDGKPLVPNEKGVSVKEQTRRHPETGLFTLQSELMVTPARGGDPRPTFSCSFSPGLPRHRALRTAPIQPRVWEPVPLEEVQLVVEPEGGAVAPPSVFLFPPKPKDTLMISRTPEVTCVVVDVSHEDPEVKFNWYVDGVEVHNAKTKPREEQYNSTYRVVSVLTVLHQDWLNGKEYKCKVSNKALPAPIEKTISKAKGQPREPQVYTLPPSRDELTKNQVSLTCLVKGFYPSDIAVEWESNGQPENNYKTTPPVLDSDGSFFLYSKLTVDKSRWQQGNVFSCSVMHEALHNHYTQKSLSLSPGK
binding to immobilized S100b (absorbance at 405 nm) [1]: specifically interact | inhibition of binding of TTP-4000 to immobilized amyloid-beta by the RAGE ligand [2]: completely inhibited
